The source of these data is patent US20240327514A1 (Janssen / Centocor, published 2024).

This test addresses T1, human CD123 (human, UniProt P26951 19-378).
T1 construct: whole, on cells; Target presented on CD123+ AML cell lines; also called CD123 on CD123+ AML cells
The test is described as follows: flow cytometry on tumor cell lines, detection with mouse anti-human IgG4. Here is the method: All tumor cells were centrifuged, washed twice with Dulbecco's phosphate-buffered saline (DPBS) and 1×10^4 cells were added to the center of each well of a 96 well U bottom plate along with fragment crystallizable (Fc) block (human IgG1 fragment) which was added at 2 mg/mL for 10 minutes. Serially diluted bispecific antibodies were added to the appropriate wells. Plates were incubated in the dark at 37° C. with 5% CO₂ for 4 hours. The cells were then washed with DPBS and binding of the bispecific antibody was detected by staining with mouse anti-human IgG4 (Southern Biotech, clone HP6025, catalog #9200-09) and LIVE/DEAD (L/D; Invitrogen, catalog #L34976) for 30 minutes. Finally, cells were washed, resuspended in stain buffer, and analyzed on the FACSCanto II flow cytometer (BD Biosciences). Geometric mean fluorescence intensity (gMFI) was plotted in Prism version 7 (GraphPad). The X axis was log transformed and a 4 parameter non-linear curve fit was applied.

T1 sequence (P26951 19-378): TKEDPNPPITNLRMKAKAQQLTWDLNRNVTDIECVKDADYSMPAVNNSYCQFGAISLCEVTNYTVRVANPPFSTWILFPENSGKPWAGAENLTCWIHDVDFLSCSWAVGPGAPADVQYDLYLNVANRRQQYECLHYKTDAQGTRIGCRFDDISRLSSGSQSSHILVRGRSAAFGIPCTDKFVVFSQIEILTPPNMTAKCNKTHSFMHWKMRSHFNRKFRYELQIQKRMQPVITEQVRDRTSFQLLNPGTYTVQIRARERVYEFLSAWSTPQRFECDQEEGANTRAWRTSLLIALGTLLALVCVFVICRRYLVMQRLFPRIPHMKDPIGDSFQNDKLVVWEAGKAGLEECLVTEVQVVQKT

B1: CD123×CD3 bispecific antibody (bispecific antibody, human IgG4 S228P, kappa, lambda, F234A L235A)
heavy 1: not shown
light 1: EIVLTQSPGTLSLSPGERATLSCRASQSVSSSYLAWYQQKPGQAPRLLIYGASSRATGIPDRFSGSGSGTDFTLTISRLEPEDFAVYYCQQDYGFPWTFGQGTKVEIKRTVAAPSVFIFPPSDEQLKSGTASVVCLLNNFYPREAKVQWKVDNALQSGNSQESVTEQDSKDSTYSLSSTLTLSKADYEKHKVYACEVTHQGLSSPVTKSFNRGEC
heavy 2: EVQLVESGGGLVQPGGSLKLSCAASGFTFNTYAMNWVRQASGKGLEWVGRIRSKYNAYATYYAASVKGRFTISRDDSKNTAYLQMNSLKTEDTAVYYCTRHGNFGNSYVSWFAYWGQGTLVTVSSASTKGPSVFPLAPCSRSTSESTAALGCLVKDYFPEPVTVSWNSGALTSGVHTFPAVLQSSGLYSLSSVVTVPSSSLGTKTYTCNVDHKPSNTKVDKRVESKYGPPCPPCPAPEAAGGPSVFLFPPKPKDTLMISRTPEVTCVVVDVSQEDPEVQFNWYVDGVEVHNAKTKPREEQFNSTYRVVSVLTVLHQDWLNGKEYKCKVSNKGLPSSIEKTISKAKGQPREPQVYTLPPSQEEMTKNQVSLTCLVKGFYPSDIAVEWESNGQPENNYKTTPPVLDSDGSFLLYSKLTVDKSRWQEGNVFSCSVMHEALHNHYTQKSLSLSLGK
light 2: QAVVTQEPSLTVSPGGTVTLTCRSSTGAVTTSNYANWVQQKPGQAPRGLIGGTNKRAPGTPARFSGSLLGGKAALTLSGAQPEDEAEYYCALWYSNLWVFGGGTKLTVLGQPKAAPSVTLFPPSSEELQANKATLVCLISDFYPGAVTVAWKADSSPVKAGVETTTPSKQSNNKYAASSYLSLTPEQWKSHRSYSCQVTHEGSTVEKTVAPTECS
notes: also called CD123xCD3 DuoBody antibody
Turning to B1, the binding result is listed as “binds”.
